Source: paper doi:10.1101/2025.03.12.642832

Biological target: polyketide synthase 16 (Pks16) (D. discoideum (endogenous in AX2-214 cells)) (UniProt Q869W9)
Test: cryo-EM structure

Substance: polyketide synthase 16 (Pks16), Q869W9 1-2603
- stoichiometry N: 2
